Measured values as given in patent US20110059490, “POLYMERASE COMPOSITIONS AND USES” (Fermentas UAB, published 2011).
Substitutions are numbered along the chain they refer to.

Key:
[1] = target: Thermococcus sp. DNA polymerase (R671E/K677E/K712E)/N210D R671E,K677E,K712E,N210D (Thermococcus sp.) (UniProt Q56366); assay: EMSA; settings: EMSA as for Taq, 1x TAE with 2 mM EDTA
[2] = target: Thermococcus sp. DNA polymerase (R671S/K677S/K712S)/N210D R671S,K677S,K712S,N210D (Thermococcus sp.) (UniProt Q56366); assay: EMSA; settings: EMSA as for Taq, 1x TAE with 2 mM EDTA
[3] = target: T1, Thermococcus sp. DNA polymerase (Thermococcus sp.) (UniProt Q56366); assay: EMSA; settings: EMSA as for Taq, 1x TAE with 2 mM EDTA
T1 sequence: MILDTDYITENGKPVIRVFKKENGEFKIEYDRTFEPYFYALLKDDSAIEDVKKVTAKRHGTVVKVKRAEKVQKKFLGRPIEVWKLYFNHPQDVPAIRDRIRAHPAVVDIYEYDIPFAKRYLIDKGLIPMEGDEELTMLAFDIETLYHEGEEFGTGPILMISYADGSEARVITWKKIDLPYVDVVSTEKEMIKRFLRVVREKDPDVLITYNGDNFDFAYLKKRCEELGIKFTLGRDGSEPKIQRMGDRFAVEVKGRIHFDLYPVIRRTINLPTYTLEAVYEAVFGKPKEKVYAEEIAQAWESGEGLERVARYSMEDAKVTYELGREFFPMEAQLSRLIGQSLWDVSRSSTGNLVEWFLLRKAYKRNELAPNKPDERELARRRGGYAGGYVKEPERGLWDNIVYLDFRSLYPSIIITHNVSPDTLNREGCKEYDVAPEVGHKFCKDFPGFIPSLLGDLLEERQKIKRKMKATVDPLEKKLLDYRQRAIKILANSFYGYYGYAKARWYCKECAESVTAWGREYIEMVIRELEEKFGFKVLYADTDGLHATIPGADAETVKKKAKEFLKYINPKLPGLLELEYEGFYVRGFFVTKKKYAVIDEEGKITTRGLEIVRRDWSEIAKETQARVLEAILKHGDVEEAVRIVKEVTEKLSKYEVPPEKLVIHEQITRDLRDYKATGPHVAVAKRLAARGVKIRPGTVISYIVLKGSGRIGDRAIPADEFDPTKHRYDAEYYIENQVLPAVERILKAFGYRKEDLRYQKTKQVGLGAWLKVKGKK

[4] = target: Thermococcus sp. DNA polymerase R671E/K677E R671E,K677E (Thermococcus sp.) (UniProt Q56366); assay: EMSA; settings: EMSA as for Taq, 1x TAE with 2 mM EDTA
[5] = target: Thermococcus sp. DNA polymerase R671E/K677E/K712E R671E,K677E,K712E (Thermococcus sp.) (UniProt Q56366); assay: EMSA; settings: EMSA as for Taq, 1x TAE with 2 mM EDTA
[6] = target: T2, Thermococcus sp. DNA polymerase R671S/K677S/K712S R671S,K677S,K712S (Thermococcus sp.) (UniProt Q56366); assay: EMSA; settings: EMSA as for Taq, 1x TAE with 2 mM EDTA
T2 sequence: T1 sequence with R460S, K466S, K501S

[7] = target: Taq DNA polymerase (I532T/R536C/K540C/H784C)/(R25S/Y81F/G187A) (UniProt P19821 P19821:1-832, I532T,R536C,K540C,H784C,R25S,Y81F,G187A); assay: EMSA; 1x TAE with 2 mM EDTA, pH 8.3; above highest tested 1000 nM; settings: tags: Fermentas
Protocol: (§1) Affinity of Taq DNA polymerase (FIG. 7A) and its mutants (FIG. 7B-J) for double-stranded DNA (template-primer duplex) was analyzed by electrophoretic mobility shift assays (EMSA) as previously described (Lagunavicius et al. (2003) J. Mol. Biol. 326: 1051-1064) except that 1 nM of 24*/44 nt duplex (* indicates ³³P label in 5′-terminus of 24 nt oligonucleotide) formed by annealing of 5′-[…]-3′ (24 nt) and 5′-[…]-3′ (44 nt) and 0, 1, 2, 5, 10, 20, 50, 100, 200, 500, 1000 nM of the proteins were mixed in 1×TAE buffer (40 mM Tris-acetate, pH8.3 at 25° C.; 2 mM EDTA) supplemented with 10% glycerol and electrophoresis was performed in 12% PAAG. The gels were analyzed by Cyclone Storage Phosphor System and OptiQuant™ Image Analysis Software (Packard Instruments) and GraphPad Prism version 4.03 Software (GraphPad Software, Inc.) (FIG. 7).
(§2) Affinity of Taq DNA polymerase (FIG. 8A) and its mutants (FIG. 8B-G) for single-stranded DNA (primer) was analyzed as described in Example 7, except that 5′-labeled 24 nt oligonucleotide (5′-[…]) was used instead of 24*/44 nt duplex (FIG. 8).

[8] = target: T3, Taq DNA polymerase I532T/R536C/K540C/H784C (UniProt P19821 P19821:1-832, I532T,R536C,K540C,H784C); assay: as above; settings: tags: Fermentas; label: 5'-33P
Protocol: as §1, §2

[9] = target: T4, Taq DNA polymerase R536C/K540C/D610A/H784C (UniProt P19821 P19821:1-832, R536C,K540C,D610A,H784C); assay: as above; settings: tags: Fermentas; label: 5'-33P
Protocol: as §1, §2

[10] = target: T5, Taq DNA polymerase (K540C/H784C)/R25S (UniProt P19821 P19821:1-832, K540C,H784C,R25S); assay: as above; settings: tags: Fermentas; label: 5'-33P
Protocol: as §1, §2

[11] = target: Taq DNA polymerase (R536C/K540C/D610A/H784C)/(Y81F/G187A) (UniProt P19821 P19821:1-832, R536C,K540C,D610A,H784C,Y81F,G187A); assay: as above; settings: tags: Fermentas
Protocol: as §1, §2

[12] = target: Taq DNA polymerase (K540C/H784C)/Y81F (UniProt P19821 P19821:1-832, K540C,H784C,Y81F); assay: EMSA; 1x TAE with 2 mM EDTA, pH 8.3, 10% glycerol; settings: tags: Fermentas
Protocol: as §1, §2

[13] = target: Taq DNA polymerase K540C/H784C (UniProt P19821 P19821:1-832, K540C,H784C); assay: EMSA; 1x TAE with 2 mM EDTA, pH 8.3, 10% glycerol; settings: tags: Fermentas
Protocol: as §1, §2

Taq DNA polymerase = Taq DNA polymerase (UniProt P19821 P19821:1-832); assay: EMSA; 1x TAE with 2 mM EDTA, pH 8.3, 10% glycerol; settings: tags: recombinant, Fermentas; label: 5'-33P
Protocol: as §1, §2

[14] = target: Taq DNA polymerase E491G/R536C/K540C/H784C (UniProt P19821 P19821:1-832, E491G,R536C,K540C,H784C); assay: EMSA; 1x TAE with 2 mM EDTA, pH 8.3, 10% glycerol; settings: tags: Fermentas
Protocol: as §1, §2

[15] = target: T6, Taq DNA polymerase N485S/R536C/K540C/H784C (UniProt P19821 P19821:1-832, N485S,R536C,K540C,H784C); assay: EMSA; 1x TAE with 2 mM EDTA, pH 8.3; tighter than WT; settings: tags: Fermentas; label: 5'-33P
[16] = target: T6, Taq DNA polymerase …; assay: EMSA; 1x TAE with 2 mM EDTA, pH 8.3, 10% glycerol; settings: tags: Fermentas; label: 5'-33P on 24 nt strand; 24 nt primer annealed to 44 nt template, 20 nt 5' template overhang
Protocol: as §1, §2

[17] = target: T3, Taq DNA polymerase …; assay: EMSA; 1x TAE with 2 mM EDTA, pH 8.3, 10% glycerol; settings: tags: Fermentas; label: 5'-33P on 24 nt strand; 24 nt primer annealed to 44 nt template, 20 nt 5' template overhang
Protocol: as §1, §2

[18] = target: T4, Taq DNA polymerase …; assay: EMSA; 1x TAE with 2 mM EDTA, pH 8.3, 10% glycerol; settings: tags: Fermentas; label: 5'-33P on 24 nt strand; 24 nt primer annealed to 44 nt template, 20 nt 5' template overhang
Protocol: as §1, §2

[19] = target: T5, Taq DNA polymerase (K540C/H784C)/R25S; assay: EMSA; 1x TAE with 2 mM EDTA, pH 8.3, 10% glycerol; settings: tags: Fermentas; label: 5'-33P on 24 nt strand; 24 nt primer annealed to 44 nt template, 20 nt 5' template overhang
Protocol: as §1, §2

[20] = label: 5'-33P on 24 nt strand, 24 nt primer annealed to 44 nt template, 20 nt 5' template overhang

T4 sequence (P19821 whole entry R536C/K540C/D610A/H784C, one chain of several): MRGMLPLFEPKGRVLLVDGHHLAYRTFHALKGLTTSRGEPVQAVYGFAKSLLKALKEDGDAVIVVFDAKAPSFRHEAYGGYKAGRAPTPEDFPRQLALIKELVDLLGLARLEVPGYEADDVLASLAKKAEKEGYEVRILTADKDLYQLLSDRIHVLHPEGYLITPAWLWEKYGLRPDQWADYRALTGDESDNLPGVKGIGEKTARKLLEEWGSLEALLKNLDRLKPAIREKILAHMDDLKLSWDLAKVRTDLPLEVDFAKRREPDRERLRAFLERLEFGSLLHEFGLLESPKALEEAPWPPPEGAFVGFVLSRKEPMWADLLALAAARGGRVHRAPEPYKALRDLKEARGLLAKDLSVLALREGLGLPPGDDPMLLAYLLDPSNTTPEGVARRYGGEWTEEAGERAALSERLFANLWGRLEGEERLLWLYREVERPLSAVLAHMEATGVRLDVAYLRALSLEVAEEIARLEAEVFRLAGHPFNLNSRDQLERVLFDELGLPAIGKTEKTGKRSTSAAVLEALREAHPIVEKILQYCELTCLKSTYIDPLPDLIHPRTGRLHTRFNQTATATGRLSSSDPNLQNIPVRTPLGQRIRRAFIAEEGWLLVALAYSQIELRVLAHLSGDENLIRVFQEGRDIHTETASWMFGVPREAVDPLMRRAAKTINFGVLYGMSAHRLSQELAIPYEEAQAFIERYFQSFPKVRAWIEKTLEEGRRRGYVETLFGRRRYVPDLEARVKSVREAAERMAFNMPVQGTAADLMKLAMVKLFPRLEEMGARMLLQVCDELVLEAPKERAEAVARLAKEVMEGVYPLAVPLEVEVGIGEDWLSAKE
T6 sequence (P19821 whole entry N485S/R536C/K540C/H784C, one chain of several): as the sequence (P19821 whole entry R536C/K540C/D610A/H784C, one chain of several) above, with N485S, A610D counted along it
Sequence of Taq DNA polymerase E491G/R536C/K540C/H784C (P19821 whole entry E491G/R536C/K540C/H784C, one chain of several): as the sequence (P19821 whole entry R536C/K540C/D610A/H784C, one chain of several) above, with E491G, A610D counted along it
Sequence of Taq DNA polymerase K540C/H784C (P19821 whole entry K540C/H784C, one chain of several): as the sequence (P19821 whole entry R536C/K540C/D610A/H784C, one chain of several) above, with C536R, A610D counted along it
Sequence of Taq DNA polymerase (I532T/R536C/K540C/H784C)/(R25S/Y81F/G187A) (P19821 whole entry R25S/Y81F/G187A/I532T/R536C/K540C/H784C, one chain of several): as the sequence (P19821 whole entry R536C/K540C/D610A/H784C, one chain of several) above, with R25S, Y81F, G187A, I532T, A610D counted along it
Sequence of Taq DNA polymerase (K540C/H784C)/Y81F (P19821 whole entry Y81F/K540C/H784C, one chain of several): as the sequence (P19821 whole entry R536C/K540C/D610A/H784C, one chain of several) above, with Y81F, C536R, A610D counted along it
T5 sequence (P19821 whole entry R25S/K540C/H784C, one chain of several): as the sequence (P19821 whole entry R536C/K540C/D610A/H784C, one chain of several) above, with R25S, C536R, A610D counted along it
T3 sequence (P19821 whole entry I532T/R536C/K540C/H784C, one chain of several): as the sequence (P19821 whole entry R536C/K540C/D610A/H784C, one chain of several) above, with I532T, A610D counted along it
Sequence of Taq DNA polymerase (R536C/K540C/D610A/H784C)/(Y81F/G187A) (P19821 whole entry Y81F/G187A/R536C/K540C/D610A/H784C, one chain of several): as the sequence (P19821 whole entry R536C/K540C/D610A/H784C, one chain of several) above, with Y81F, G187A counted along it
Sequence of Taq DNA polymerase (P19821 whole entry, one chain of several): as the sequence (P19821 whole entry R536C/K540C/D610A/H784C, one chain of several) above, with C536R, C540K, A610D, C784H counted along it

TTTTAGCCGCTAGAGTCGACCTGC / GGAGACAAGCTTGTATGCCTGCAGGTCGACTCTAGCGGCTAAAA [24/44 nt template-primer duplex]
Kd [1]: 470 nM | Kd [2]: 190 nM | Kd [3]: 2.8 nM | Kd [4]: 240 nM | Kd [5]: 190 nM | Kd [6]: 110 nM

TTTTAGCCGCTAGAGTCGACCTGC [24 nt primer]
Kd [1]: 2300 nM | Kd [2]: 440 nM | Kd [3]: 52 nM | Kd [4]: 730 nM | Kd [5]: 740 nM | Kd [6]: 310 nM

B1: 24 nt primer (ssDNA)
DNA: TTTTAGCCGCTAGAGTCGACCTGC
Kd ([7]; label: 5'-33P): 7700 nM | Kd [8]: 5200 nM | Kd [9]: 2000 nM | Kd [10]: 2700 nM | Kd ([11]; label: 5'-33P): 3700 nM | Kd ([12]; label: 5'-33P): 350 nM | Kd ([13]; label: 5'-33P): 460 nM | Kd (Taq DNA polymerase): 79 nM | Kd ([14]; label: 5'-33P): 530 nM | Kd [15]: 23 nM

B2: 24/44 nt template-primer duplex (dsDNA)
DNA 1: TTTTAGCCGCTAGAGTCGACCTGC
DNA 2: GGAGACAAGCTTGTATGCCTGCAGGTCGACTCTAGCGGCTAAAA
Kd [7, 20]: 16000 nM | Kd [11, 20]: 2200 nM | Kd [16]: 32 nM | Kd [12, 20]: 28 nM | Kd [13, 20]: 25 nM | Kd [17]: 990 nM | Kd [18]: 320 nM | Kd [14, 20]: 200 nM | Kd [19]: 56 nM
